For 167 variants, self-cleavage results are on record in the RNAGym collection of RNA variant scans (doi:10.7554/elife.80360).

First the molecules themselves.
B1: Twister Ribozyme (parent)
chain: AACACUGCCAAUGCCGGUCCCAAGCCCGGAUAAAAGUGGAGGGGGCGG

Variants of B1 are the subject of this data set. The data set is described as follows: self-cleavage, relative activity (ratio to wild type); higher = more cleavage; co-transcriptional.
Regarding U12G C46G, the self-cleavage came to 0.757. As to G13C A22U, the self-cleavage was 0.16. Take G13C A22G: the self-cleavage turned out to be 0.103. For the variant G13U G38C, the self-cleavage was 0.6. Regarding G13U G38U, the self-cleavage came to 0.303.

On to C14U A34U, for which the self-cleavage came out at 0.951.

As to C14U A34C, the self-cleavage turned out to be 0.461.

Turning to C14A G17U, the self-cleavage was 0.361. In the case of U12G G29C it was 0.677. As to U12G G29A, the self-cleavage stood at 0.622. With G13C A40C, the self-cleavage stood at 0.0965. In the case of G13C G48C, the self-cleavage was determined as 0.249. On to G13C G48U, for which the self-cleavage was found to be 0.217. For the variant G13C G48A, the self-cleavage came to 0.115. As for C14U C20G, the self-cleavage was 0.2. The same measure for C14U G39A: 0.509; for C14U G39C: 0.198; for C14U G39U: 0.28.

As for C14A A22U, the self-cleavage is 0.657.

As for C14A A22G, the self-cleavage came out at 0.407. Regarding C14A A22C, the self-cleavage was determined as 1.09. The same measure for C14A G47C: 0.44; for G13A C14U: 0.8. Regarding G13A C14G, the self-cleavage was determined as 0.551. Turning to G13A G42A, the self-cleavage amounted to 0.186. Regarding C14G G43U, the self-cleavage amounted to 0.08. The same measure for C14G G43C: 0.0465; for C14G C15U: 0.401. The same measure for C14G U37G: 0.0706; for G13U A35U: 0.696. The same measure for G13U A35C: 0.587. With C14A G41U, the self-cleavage was determined as 0.55.

Turning to C14A G41A, the self-cleavage was 0.591. The same measure for C14G G38U: 0.111; for C14G G38C: 0.159; for C14G A23C: 0.0556. Consider C14G A23U, for which the self-cleavage amounted to 0.0448. For the variant G13A C27G, the self-cleavage amounted to 0.073. The same measure for G13A G41A: 0.157; for G13A G41C: 0.17; for G13A G41U: 0.131.

Consider G13A A33U, for which the self-cleavage amounted to 1.01. With C14A C15G, the self-cleavage is 0.31. With C14A C15A, the self-cleavage turned out to be 0.885. With C14A C15U, the self-cleavage is 0.746. Turning to C14U A23G, the self-cleavage came out at 0.666. In the case of C14U A23C it was 0.51. In the case of C14U A23U it was 0.722. On to G13A G36C, for which the self-cleavage stood at 0.118.

In the case of G13U A40U, the self-cleavage came to 0.16. Regarding G13U A40C, the self-cleavage stood at 0.129. With G13C G42A, the self-cleavage was found to be 0.12.

For the variant U12G C19G, the self-cleavage was found to be 0.686.

On to C14A G39U, for which the self-cleavage is 0.198.

Regarding C14A G39C, the self-cleavage came out at 0.154. The same measure for U12G G36U: 0.397; for U12G G36C: 0.475; for U12G G36A: 0.64. With C14A C25U, the self-cleavage was 0.699. Consider C14A C25G, for which the self-cleavage is 0.657.

For the variant C14A C25A, the self-cleavage was found to be 0.242. As to U12G G45A, the self-cleavage was found to be 0.583.

As to G13A A34G, the self-cleavage came out at 0.635. On to G13A A34C, for which the self-cleavage amounted to 0.173. In the case of C14G G47A it was 0.0923; in that of G13U C26G, 0.0668.

Take G13U C26U: the self-cleavage came out at 0.109. In the case of G13A G17U, the self-cleavage worked out at 0.108. For G13A G17C, the self-cleavage was 0.0471. Consider G13U C15A, for which the self-cleavage came out at 0.11. For the variant G13U C15G, the self-cleavage was found to be 0.108. As to G13U C15U, the self-cleavage was 0.317. In the case of C14U G29A it was 1.06; in that of C14U G29U, 1.09; in that of G13C C46G, 0.268. Consider G13C C46A, for which the self-cleavage worked out at 0.232. For G13C C46U, the self-cleavage stood at 0.485. For G13C C20G, the self-cleavage stood at 0.0962.

In the case of G13C C20A, the self-cleavage was found to be 0.0483.

As for G13C C20U, the self-cleavage was 0.125.

Turning to G13U U37G, the self-cleavage stood at 0.119.

For the variant G13U U37A, the self-cleavage worked out at 0.133. For the variant C14A U18C, the self-cleavage came out at 0.371. Regarding C14A U18G, the self-cleavage is 0.0811. Take C14A U18A: the self-cleavage came out at 0.485. As to U12G U18G, the self-cleavage came out at 0.0252. Turning to G13U A23G, the self-cleavage stood at 0.0827.

On to C14A C26G, for which the self-cleavage was found to be 0.118.

As for G13A C46A, the self-cleavage was 0.715. In the case of G13A C46G it was 0.848; in that of C14A G44U, 0.883. Take C14U G43U: the self-cleavage was determined as 0.526.

Regarding C14U G43C, the self-cleavage was 0.227.

Take C14U G43A: the self-cleavage was 0.369. Turning to C14A C21U, the self-cleavage came out at 0.138.

In the case of U12G C25G, the self-cleavage is 0.486.

For the variant G13C C27A, the self-cleavage came out at 0.0712. As for G13C C27U, the self-cleavage came to 0.0915. In the case of C14G A34C, the self-cleavage amounted to 0.0831. Consider C14G A34U, for which the self-cleavage is 0.159. Regarding U12G C26A, the self-cleavage turned out to be 0.589. The same measure for C14A C46A: 0.773; for C14A C46U: 0.827; for C14U C46U: 1.01. The same measure for C14U C46G: 1.04.

Take G13A G43C: the self-cleavage came out at 0.167.

As to G13A G43U, the self-cleavage is 0.182.

Regarding G13A G38U, the self-cleavage worked out at 0.463.

Turning to G13C G17C, the self-cleavage stood at 0.0805. With G13C G17U, the self-cleavage is 0.114.

On to C14A A34G, for which the self-cleavage came out at 0.88. For the variant C14A A34C, the self-cleavage came to 0.426. With C14A G29U, the self-cleavage came out at 0.903.

On to C14A G29C, for which the self-cleavage came to 0.947. On to C14A G29A, for which the self-cleavage turned out to be 0.974. For G13A U31A, the self-cleavage was 1.02. In the case of C14A G38C it was 0.861; in that of C14A G38A, 0.874; in that of U12G C27G, 0.136. Turning to U12G C27U, the self-cleavage is 0.496.

On to U12G C27A, for which the self-cleavage stood at 0.373. For G13C C14G, the self-cleavage came to 0.334. As to G13C C14U, the self-cleavage turned out to be 0.408. Consider C14A G43U, for which the self-cleavage came to 0.456. With G13C C26U, the self-cleavage worked out at 0.0884. Take G13C C26A: the self-cleavage was found to be 0.0939.

As for C14G G42A, the self-cleavage came out at 0.0786. With C14G G42U, the self-cleavage was determined as 0.0931. Consider U12G C20A, for which the self-cleavage amounted to 0.314. As for C14G G41C, the self-cleavage was determined as 0.0824.

C14G G41U: the self-cleavage worked out at 0.111. For C14A A30U, the self-cleavage stood at 0.968.

As for U12G G43A, the self-cleavage worked out at 0.399. As to G13A U37C, the self-cleavage turned out to be 0.183. In the case of G13A U37A it was 0.209; in that of G13A U37G, 0.233. In the case of G13C A32G it was 0.255. G13C A32C: the self-cleavage was determined as 0.159. On to C14G G16U, for which the self-cleavage is 0.138. G13U U18G: the self-cleavage came out at 0.0548. With G13U U18A, the self-cleavage stood at 0.0935. For G13U U18C, the self-cleavage turned out to be 0.0744. Turning to G13U G47U, the self-cleavage is 0.197. The same measure for G13U G48C: 0.456; for C14U A22C: 1.15; for C14U A22G: 0.319. As for C14A A40U, the self-cleavage amounted to 0.143. With C14G G24C, the self-cleavage came out at 0.0845. For the variant G13A G45C, the self-cleavage was determined as 0.229. With G13C A35C, the self-cleavage came to 0.403. As for G13C A35G, the self-cleavage came to 0.139. In the case of G13C A35U, the self-cleavage is 0.629.

Regarding U12G G47A, the self-cleavage came out at 0.772. For the variant U12G G47U, the self-cleavage was determined as 0.703. As for G13U C21U, the self-cleavage worked out at 0.0908. Take G13U C20G: the self-cleavage was determined as 0.1. With G13U C20A, the self-cleavage amounted to 0.0934. Turning to G13A A40C, the self-cleavage was determined as 0.224. As for G13A A40U, the self-cleavage stood at 0.209.

Regarding G13A C21A, the self-cleavage was 0.0879.

Take C14U G28A: the self-cleavage turned out to be 1.09. On to C14U G28C, for which the self-cleavage worked out at 1.01.

As to U12G G24A, the self-cleavage came to 0.177. Take U12G G24C: the self-cleavage came out at 0.0924. Regarding G13U G45A, the self-cleavage came out at 0.308. For G13C U18C, the self-cleavage was determined as 0.0885. As for G13C G36U, the self-cleavage stood at 0.0844.
